Source: paper PMC4938799, “LD Motif Recognition by Talin: Structure of the Talin-DLC1 Complex” (Structure(London, England:1993), 2016)

System: A549 human non-small cell lung cancer line
Assay: Growth in soft agar
Type: cell-based
Settings: transfected A549, 3 weeks; mean over three experiments
Source text: Figure 6 Talin R8 Mutations Disrupt the Interaction with DLC1 and Affect Its Biological Activity (A) Wild-type GST-talin fragments pull down more DLC1 than the 2E mutants. Extracts of HEK293T cells transfected with GFP-DLC1 and GST-talin constructs were subjected to pull-down assays with glutathione beads followed by immunoblotting with anti-GST and anti-DLC1 on the same membrane (top). The transfected GFP-DLC1 in each sample is shown by the anti-DLC1 blot (bottom) as a loading control. (B) Wild-type GST-talin fragments compete efficiently with endogenous talin to form a complex with DLC1. The supernatants collected after pull-down assay from (A) were reused for co-immunoprecipitation with an anti-talin antibody and blotted with anti-DLC1 (top). A small aliquot from each lane was blotted for endogenous talin as a loading control (bottom). (C) Co-expression of GST or GST-talin fragments (wild-type or 2E mutant) with GFP DLC1 in A549 cells. […] Transfected A549 cells were cultured in G418 for 3 weeks, and colonies counted and quantitated (top). […] Transfected A549 cells were grown for 3 weeks in soft agar, and colonies counted and quantitated (top). […] Lysates from migrated cells were quantitated (top), and representative microscopic images of the migrated cells are shown (bottom). […]

B1: GST-R8: GST-tagged talin R8, amino acids 1,453–1,580 (protein)
chain: NSQAGQQGLVEPTQFARANQAIQMACQSLGEPGCTQAQVLSAATIVAKHTSALCNSCRLASARTANPTAKRQFVQSAKEVANSTANLVKTIKALDGDFTEENRAQCRAATAPLLEAVDNLSAFASNPE
modifications: left off: GST, end not stated, kept
Which “growth in soft agar” value does the source give for B1 here?
Its value is “no detectable biological activity”.
